# According to patent US20210389324:
# What was measured:
# [1] = system: CFP-TRIM14-YFP 19-residue substrate
# [2] = system: CFP-TRIM14-YFP 22-residue substrate
# [3] = system: CFP-FOXP3-YFP (18-residue)
# [4] = system: CFP-FOXP3-YFP (25-residue)
# [5] = system: CFP-MYH6/7-YFP (16-residue)
# [6] = system: CFP-MYH6/7-YFP (23-residue)
Substance,cleavage of CFP-YFP substrate (CFP-SFVp12-YFP 11:6),cleavage of CFP-YFP substrate (CFP-SFVp12-YFP 19:6),Km [1] [µM],Vmax [1] [U/mg],cleavage of CFP-YFP substrate [1],Km [2] [µM],Vmax [2] [U/mg],cleavage of CFP-YFP substrate [2],Km (CFP-V34-YFP) [µM],Vmax (CFP-V34-YFP) [U/mg],cleavage of CFP-YFP substrate (CFP-V34-YFP),cleavage of CFP-YFP substrate (CFP-VEEVnsP23-YFP),cleavage of CFP-YFP substrate [3],cleavage of CFP-YFP substrate [4],cleavage of CFP-YFP substrate [5],cleavage of CFP-YFP substrate [6],cleavage of CFP-YFP substrate (CFP-PROS1-YFP)
Recombinant VEEV nsP2-thioredoxin Protease containing residues 457-792,CHIKV and VEEV nsP2 cysteine protease,CHIKV and VEEV nsP2 cysteine protease,50,0.012,VEEV nsP2 cysteine protease,26,0.008,VEEV nsP2 cysteine protease,21,0.089,VEEV nsP2 cysteine protease,VEEV nsP2 cysteine protease,,,,,
Recombinant MERS-CoV-2 Papain-like Protease,,,,,,,,,,,,,"SARS-CoV-2, MERS PLpro","SARS-CoV-2, MERS PLpro","SARS-CoV-2, MERS PLpro","SARS-CoV-2, MERS PLpro","SARS-CoV-2, MERS PLpro"
